Source: paper PMC8393709

Assays:
[1] = molecular target: HPV16 E6N Y43E/F47R, amino acids 1 to 80 (RLuc- and YFP-tagged); assay: BRET binding curve; conditions: HEK 293T cells; value at the highest YFP/RLuc point of each curve (mutant x about 860, E6N x about 880); non-specific level (E6N + UL44) about 65; parent: est. 250; read off a plot
[2] = molecular target: HPV16 E6N Y43E/F47R, amino acids 1 to 80 (RLuc- and YFP-tagged); assay: BRET; conditions: HEK 293T cells; RLuc- and YFP-tagged E6N fragments (amino acids 1 to 80); parent: est. 160; read off a plot
[3] = molecular target: HPV16 E6 Y43E/F47R, full length (RLuc- and YFP-tagged); assay: BRET; conditions: parent: est. 150; read off a plot

Substance | response [1] | response [2] | response [3]
HPV16 E6N, N-terminal domain of E6, amino acids 1 to 80 (RLuc-E6N and YFP-E6N) Y43E; F47R | 120 a.u. (mBR) | 70 a.u. (mBR) | 
HPV16 E6, wild-type, full length (RLuc-E6 and YFP-E6) (from UniProt P03126) Y43E; F47R |  |  | 53 a.u. (mBR)
